# Variants at the floor of the assay were thinned out.
# B1: TPR 5TU (parent)
# chain: GGAUCUUCUCGAUCUAACAAAAAAGACAAAUCUGCCACAAAGCUUGAGAGCAUCUUCGGAUGCAGAGGCGGCAGCCUUCGGUGGCGCGAUAGCGCCAACGUUCUCAACUAUGACACGCAAAACGCGUGCUCCGUUGAAUGGAGUUUAUCAUG
# Variants of: B1
# Test: polymerase ribozyme fitness, log enrichment relative to wild type (log ratio); higher = more active; in vitro selection for triplet polymerase activity
# Procedure, shortened: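 Fitness is a logarithmic measure of how a genotype enriched relative to the wild type, with replicate averages weighted by inverse variance. The logarithm uses base 2, and enrichment came from Illumina sequencing of input and output libraries. Those libraries were PCR-built, transcribed mutants of each subunit of a heterodimeric triplet polymerase ribozyme, passed through one triplicate in vitro selection round that included frozen incubation at −7 °C, gel excision of extended constructs and streptavidin-bead capture. Genotypes were kept only if they had ≥10 input reads and ≥1 read per output.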
row,Variant,polymerase ribozyme fitness (log ratio)
1,U53G C85G,-3.69
2,C51U U55A C96A,-1.8
3,A52G G74A A137U,≤ -4.2
4,U53G A150U,-1.34
5,A52C U78A C96A U144G,≤ -4.2
6,C54A A91U C108U G124U A138C G141A,≤ -4.2
7,A52G U53A C85A U111G,≤ -4.2
8,U53A G86C A91U G136A,≤ -4.2
9,A52G C95A C99A,-1.54
10,A52U C85G C123A G140A,≤ -4.2
11,C51U A150G,-1.14
12,U53G U90A C93G A110C,≤ -4.2
13,A52C U102G A147U,-3.59
14,A52C G88A A113U A121C,≤ -4.2
15,A52U C105U,-1.7
16,C54A C123U,-0.754
17,C54A C123G,-1.63
18,A52U G59A U82G U145A U146C,-0.208
19,C51U G94A C96U G126C,-1.72
20,A52C A66G G71U C125U,≤ -4.2
21,U53A C87U A150U,-0.451

row,Variant,polymerase ribozyme fitness (log ratio)
1,C51U G92U C93U C95U,-2.56
2,A52G C93A G140A,≤ -4.2
3,C51U C87A G141U,≤ -4.2
4,A52G G83C,-2.18
5,U53A G94U,-3.17
6,C51U A60G A66C U82C G94A U109A G136A A138C,≤ -4.2
7,A52G C93U U101C C105U,-2.43
8,C54A A64G C76G C93U A138C,≤ -4.2
9,A52G U53A G83U,-2.28
10,C54A C85U C125G,-1.96
11,C51U C85A G143C,-2.7
12,U53A C54G G67C C118U U130A,≤ -4.2
13,U53A C96U C114G,-4.15
14,A52G U82G,0.0484
15,A52C G92U,-1.12
16,C51U G67A G83U G94A A98C C99G U109C A120U U145G,≤ -4.2
17,C51U G59A C95A C125G,-1.53
18,C51U U56A A91G,-3.44
19,A52U G58U U90C C118U G126C A138C,≤ -4.2
20,A52G C85U U104G,-0.901
21,A52U A107C,≤ -4.2

row,Variant,polymerase ribozyme fitness (log ratio)
1,U53A A122U A138U,-4.07
2,C54A G81A,-1.07
3,C54A G71A G88C A110G,≤ -4.2
4,U53G C54G C57U C95U,-4.07
5,A52U C76U A150U,-1.19
6,U53A U56A C105U,-1.66
7,A52U U53A U101G,-2.73
8,A52C U55A A60C C76U G83A C85U C129G A150G,≤ -4.2
9,C51U C57A G84A U109G C123A,-1.74
10,U53A C149G,-3.71
11,A52C G58U C75A C93A,≤ -4.2
12,U53A G65C C85G A137U G140C,≤ -4.2
13,A52U U53A G58U,-0.762
14,A52U A150C,-4.03
15,U53G G94A,-4.1
16,C51U A60G C79G C85G C129A,≤ -4.2
17,A52G G65A G68U G92U C103U A119U U139C,≤ -4.2
18,A52G U55A U90G C96U C103A C131G,≤ -4.2
19,A52G G84A C99U A120G,-1.11
20,U53A G84A G94A C103U C114U G126C,≤ -4.2
21,U53A C85A A89C,-3.89

row,Variant,polymerase ribozyme fitness (log ratio)
1,U53A G92C,-3.01
2,U53A G92U,-1.74
3,C51U A60G G86A,-1.75
4,A52G C69U C93U,-2.89
5,U53A G100A,≤ -4.2
6,A52C C63U C93A A107U C125U U146A,≤ -4.2
7,U53A U151G,≤ -4.2
8,A52U C87U,-2.81
9,U53A G92C A137G,-3.41
10,A52C G70C C85U C125U,≤ -4.2
11,U53A C76A C87U A107C,≤ -4.2
12,U53A C85U C105G,≤ -4.2
13,U53A C85A A106G U144G,-2.88
14,A52C C95A C132G G141A A150G,≤ -4.2
15,U53A U55G C85A C95U A121C,≤ -4.2
16,U53A U61A,-1.15
17,U53A U61G,-0.814
18,A52C C69A C105U,-3.13
19,A52G G84U C96U U139C U144C,≤ -4.2
20,U53A C54A G59U A64U C93G A137C,≤ -4.2
